Article PMC2597023 (Journal of cellular biochemistry, 2008)

Molecular target: full-length human IGFN1 with an N-terminal c-myc tag (human, UniProt Q86VF2-2 1-868)
Assay: co-IP

B1: endogenous eEF1A1 of mouse C2C12 myoblasts (natural protein, mouse (endogenous in C2C12), UniProt P10126 1-462, looked up)
chain: MGKEKTHINIVVIGHVDSGKSTTTGHLIYKCGGIDKRTIEKFEKEAAEMGKGSFKYAWVLDKLKAERERGITIDISLWKFETSKYYVTIIDAPGHRDFIKNMITGTSQADCAVLIVAAGVGEFEAGISKNGQTREHALLAYTLGVKQLIVGVNKMDSTEPPYSQKRYEEIVKEVSTYIKKIGYNPDTVAFVPISGWNGDNMLEPSANMPWFKGWKVTRKDGSASGTTLLEALDCILPPTRPTDKPLRLPLQDVYKIGGIGTVPVGRVETGVLKPGMVVTFAPVNVTTEVKSVEMHHEALSEALPGDNVGFNVKNVSVKDVRRGNVAGDSKNDPPMEAAGFTAQVIILNHPGQISAGYAPVLDCHTAHIACKFAELKEKIDRRSGKKLEDGPKFLKSGDAAIVDMVPGKPMCVESFSDYPPLGRFAVRDMRQTVAVGVIKAVDKKAAGAGKVTKSAQKAQKAK
**Q.** For B1, which “fold of eEF1A1 immunoprecipitated against cells with the empty pCMV-myc vector” value is on record?
**A.** The value was ~4 fold.
